From patent publication US20200087364A1 (IMMATICS BIOTECHNOLOGIES, published 2020)

Target: T1, HLA-A*01:01 (human)
T1 construct: MHC class I monomer first loaded with a UV-sensitive peptide (not identified) that is cleaved by UV irradiation and exchanged for the tested peptide; captured on streptavidin plates, detected with anti-β2m; also called peptide-receptive MHC molecules
Experiment: UV-ligand exchange, anti-b2m ELISA
Method in brief: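 Peptide–MHC complexes made by UV-ligand exchange of a UV-cleavable peptide; exchange yield measured by ELISA on streptavidin-coated plates, samples diluted 100-fold, 1 h 37 °C. Detection with 2 ug/ml HRP anti-β2m, TMB, A450; refolded HLA-A*02:01/MLA-001 monomer standards 15-500 ng/ml.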

Binder | peptide exchange yield [%]
ESMDIFPLGW | 20 to 50
LLDEDNNIKL | 20 to 50
VTTDKPRAY | 20 to 50
VLKIELETY | 50 to 75
GTDKQNSTLRY | 50 to 75
EDLLEVLDMY | 20 to 50
YMTSMALNY | 50 to 75
VTDGINPLI | 20 to 50
KAFQELGVRY | 20 to 50
KSFETTVRY | 20 to 50
RLDEAMISY | 50 to 75
EVDSVALSL | 20 to 50
IMLSVDQHLY | 50 to 75
QAMPSWPTAAY | 20 to 50
FYLSTPENYHY | 50 to 75
GQRLDEAMISY | 50 to 75
KTLQKPVLPLY | 20 to 50
VSINPNSGDIY | 50 to 75
NTDSMTLNNTAY | > 75
FSELNPLALY | > 75
YADLLIYTY | > 75
VSDHLQAGMLGQY | 50 to 75
LSDPQAELQFY | > 75
VTDGTHTDFY | 50 to 75

Binder | peptide exchange yield [%]
HMLAAMAY | 20 to 50
FGTTPAAEYF | 20 to 50
PSSMPECLSY | > 75
SVDSNLVAY | 50 to 75
QITSFASGTSY | 50 to 75
VLDFAPPGASAY | > 75
YTCEECGQAF | 20 to 50
ESQTCASDY | 50 to 75
FSENLIYTYI | 20 to 50
PANYLGKMTY | 50 to 75
FTDPHIITF | > 75
AATVKSDIY | 20 to 50
LPAPGFLFY | 20 to 50
MMEMEGMY | 50 to 75
YLYQAPGSLALY | > 75
ATDMEGNLNY | 50 to 75
GQFTGTAGACRY | 20 to 50
STSRLTLFS | 20 to 50
ELAAGQVVY | 10 to 20
KFDVINHYF | 20 to 50
VLPHHSEGACVY | 50 to 75
ATNIQLNIDTY | 50 to 75
RTGIFPYRF | 20 to 50
TEEKFVSY | 10 to 20

Binder | peptide exchange yield [%]
TLEDLDNLYNY | 50 to 75
YPDLSELLM | 20 to 50
TSDVTGSLTY | > 75
TCSHTFVYY | 20 to 50
YTSHEDIGY | > 75
ESDEMENLLTY | 50 to 75
LMTVLLKY | 50 to 75
DTDDRELRY | 50 to 75
YSPDSFNVSW | 20 to 50
ETILVSSSY | 20 to 50
SMDPVTGYQY | 50 to 75
ENSIEDLQY | 50 to 75
PPEANSLQGALY | 20 to 50
QALQDKLQTFY | 20 to 50
GFGGLSSQGVYY | 50 to 75
TTEMVSNESVDY | > 75
EGELSEGEHWY | 50 to 75
PSEVPVDSHYY | 50 to 75
LQKPVLPLY | 20 to 50
DGIADASNLSYY | 20 to 50
TVTDGTHTDFY | 20 to 50
EVDRNLIQY | 50 to 75
FTESNQYNIY | > 75
PSSMPECLSYY | 50 to 75
